Data taken from patent publication US20220403048A1, “BINDING MOLECULES TO ARGINASE II [ARG2]” (Cancer Research Technology Limited, priority 2019, published 2022).

Molecular target: T1, recombinant human trimeric ARG2 enzyme (Homo sapiens, UniProt P78540, E275H/R327K)
T1 construct: His10 (after a GGG linker) (C); made in house; host or cells: E. coli BL21 (DE3)
T1 sequence (P78540 with tags, fused parts or gaps E275H/R327K): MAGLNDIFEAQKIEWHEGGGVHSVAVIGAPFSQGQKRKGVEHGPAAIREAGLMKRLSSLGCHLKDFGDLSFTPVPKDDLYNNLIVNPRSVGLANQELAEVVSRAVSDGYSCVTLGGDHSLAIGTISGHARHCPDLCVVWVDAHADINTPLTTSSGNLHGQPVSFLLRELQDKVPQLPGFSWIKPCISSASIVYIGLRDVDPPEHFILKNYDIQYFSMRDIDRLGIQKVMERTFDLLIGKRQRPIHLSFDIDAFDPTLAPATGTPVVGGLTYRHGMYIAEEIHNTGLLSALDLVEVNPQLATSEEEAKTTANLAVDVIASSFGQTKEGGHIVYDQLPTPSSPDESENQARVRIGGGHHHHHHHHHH
Experiment: Direct binding HTRF assay, human trimeric ARG2
Conditions: purified scFv, FIG. 1A
Description: Unpurified scFv from periplasmic preparations were screened in a homogeneous time-resolved fluorescence (HTRF™, CisBio Bioassays, France) binding assay using a Pherastar plate reader (BMG Labtech, Germany). In this assay, binding of unpurified scFv to recombinant human trimeric ARG2 enzyme was assessed by measuring the fluorescence resonance energy transfer (FRET) between the c-myc tagged scFv and the biotinylated enzyme using streptavidin cryptate and anti-c-myc-XL665 detection reagents (CisBio International, France; cat: 610SAKLB and 61 MYCXLB respectively). […] Assay plates were incubated overnight at 4° C. prior to reading time resolved fluorescence on a Pherastar plate reader ([…]) using an excitation wavelength of 320 nm and measuring the emission at 620 nm and 665 nm (100 flashes).
Data were analysed by calculating % Delta F values for each sample. % Delta F was determined according to equation 1.
The scFv with unique protein sequences were expressed in E. coli and purified by affinity chromatography (essentially as described (Bannister et al., 2006)). The ARG2 binding profile of each purified scFv was determined by testing a dilution series of the purified scFv in the HTRF™ assay described in section 1.4, substituting the unpurified scFv periplasmic preparation with the purified scFv. […] Data were analysed by calculating the % Delta F values as described in section 1.4. […]

- binding to biotinylated recombinant human trimeric ARG2 enzyme: bound
B1: C0020065: anti-ARG2 antibody, alternate lead isolation clone, VH SEQ ID NO: 2, VL SEQ ID NO: 7 (antibody, listed as Homo sapiens, V domains shown)
VH: GVNLRESGGGVVQPGRSLRLSCAASGFTFSSYAMHWVRQAPGKGLEWVAVISYDGSNKYYVDSVKGRFTISRDNSKNTLYLQMNSLRAEDTAVYYCARDSSQLWFDYWGRGTLVTVSS
VL: QSVVTQPPSVSGAPGQRVTISCTGSSSNIGTGYDVHWYQQLPGTAPKLLIYGNSNRPSGVPDRFSGSKSGTSASLAITGLQAEDEADYYCQSYDSSLSGSVVFGGGTQLTVL
modifications: C0020065
